{
  "source": "patent US20220144895A1",
  "about": "“DE NOVO DESIGN OF TUNABLE PH-DRIVEN CONFORMATIONAL SWITCHES” (University of Washington, priority 2019, published 2022)",
  "key": {"[1]": {"assay": "Native mass spectrometry of pH-induced changes in oligomeric state", "type": "physicochemical", "settings": "native MS", "in_short": "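Protein in 200 mM ammonium acetate/50 mM triethylammonium acetate, acid-adjusted to each target pH, was held 30 min on ice and sprayed by nESI at 5 μM monomer or 1.67 μM trimer. Oligomer fractions came from integrated charge-state series, then fitted by nonlinear least squares.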"}, "[2]": {"assay": "Fluorescence dequenching liposome leakage (liposome disruption) assay", "type": "biochemical", "settings": "pH 5, 2.5 μM protein", "experimental": "Liposomes composed of DOPC (1,2-dioleoyl-sn-glycero-3-phosphocholine), DOPC with 25% cholesterol (molar ratio to DOPC), 3:1 DOPC:POPS (1-palmitoyl-2-oleoyl-sn-glycero-3-phospho-L-serine), and 3:1 DOPC:POPS with 25% cholesterol were prepared identically to a final concentration of 5 mM total lipid as previously described (32); lipids from Avanti Polar Lipids. Lipids solubilized in chloroform were dried under nitrogen gas and stored under vacuum for a minimum of 2 hours to remove residual solvent. The dried lipid film was the resuspended in Tris buffer (10 mM Tris, 150 mM NaCl, and 0.02% NaN3 pH 8.0) containing 25 mM Sulforhodamine B (SRB) fluorophore (Sigma) and subjected to 10 sequential freeze thaw cycles in liquid nitrogen. Liposomes were extruded 29 times through 100 nm pore size polycarbonate filters (Avanti Polar Lipids) and purified from free fluorophore using a PD-10 gel filtration column (GE Healthcare) into storage buffer (10 mM Tris, 150 mM NaCl, and 0.02% NaN3 pH 8.0). Liposome size and homogeneity was analyzed by dynamic light scattering (DLS) using a Dynapro Nanostar™ DLS (Wyatt Technologies). On average liposome diameter ranged from 120-130 nm with low polydispersity. Liposomes were stored at 4° C. and used within 5 days of preparation.\nLiposome disruption and content leakage was analyzed by fluorescence spectroscopy as previously described (32). […] The solution was rapidly acidified to the target pH by addition of a fixed volume of acidification buffer and incubated for 20 minutes. […] SRB fluorescence is independent of pH within the ranges used here. Finally. Triton X-100 (Sigma) was added to a final concentration of 1% to fully disrupt liposomes. Liposome disruption as indicated by content leakage and SRB dequenching was normalized using the formula [Fω−F(0)]/[F(Max)−F(0)] where F(0) is the average fluorescence intensity before acidification and F(Max) is the average fluorescence intensity ater addition of Triton X-100. All measurements were collected on a Varian Cary Eclipse spectrophotometer using an excitation/emission pairing of […] and 2.5 nm slit widths at 24° C. Any data plotted together was collected using the sum batch of liposomes."}, "[3]": {"assay": "Cryo-electron microscopy and tomography of proteins with DOPC liposomes", "settings": "gold-nanoparticle conjugates, pH 5 and pH 8", "experimental": "The conjugation reactions were performed immediately prior to use for electron microscopy imaging. […] The grids were prepared using a Vitrobot Mark IV (FEI) at 4 C and 100% humidity before being plunge-frozen in ethane cooled with liquid nitrogen.\nElectron micrographs were collected using a Tecnai G2 Spirit™ Transmission Electron Microscope (FEI) operated at 120 kV and equipped with a 4k×4k Gatan Ultrascan CCD camera at a nominal magnification of 26,000× or a Tecnai TF-20 Transmission Electron Microscope (FEI) operated at 200 kV equipped with a K2 Summit Direct Electron Detector (Gatan).\nProjection micrographs collected on the TF-20 were captured with the detector operating in counting mode. Specimens were imaged at 14,500 magnification, giving a pixel size of 0.254 nm, with a dose of ˜18e−/Å^2 across 75 200 ms movie frames. Data were collected in a semi-automated fashion using Leginon™ (49) and micrograph movie frames were aligned using MotionCor2™ (50). Leginon™ was used to collect tomography tilt series from −48 to +48 degrees bidirectionally in 3 degree increments with a total accumulated dose of ˜100 e−/Å^2. Reconstructions were processed using etomo in the IMOD™ software suite (31) with CTF parameters estimated from CTFFIND4™ (52). Reconstructed tomograms were visualized and measurements were made using ImageJ™ (53)."}, "U2-OS cells": {"tested_on": "U2-OS cells", "assay": "Colocalization of +36GFP fusions with lysosomal membrane (confocal microscopy)", "type": "cell-based", "settings": "5 μM, 1 hr", "experimental": "U-2 OS (ATCC) cells were cultured in DMEM supplemented with 10% (v/v) inactivated FBS (Corning), 2 mM glutamine, penicillin (100 IU/mL), and streptomycin (100 μg/mL) at 37° C. and 5% CO2. The glass-bottom coverslip chambers were pre-coated with 500 μg/mL of Matrigel (Corning). Transfection of LAMP1-HaloTagTM was performed using Lonza Nucleofector system according to the manufacturer's specifications. After overnight of recovery and expression, the cells expressing LAMP1-HaloTagTM were labeled with 100 nM JF646-HTL for 30 minutes and washed three times with pre-warmed DMEM medium. The final concentration of 5 μM+36GFP fusion proteins was incubated with the LAMP1-HaloTagTM expressing U-2 OS cells on a pre-coated coverslip for 1 hr. Cells were fixed with 4% paraformaldehyde for 20 min at room temperature (RT) and quenched/rinsed with PBS supplemented with 30 mM glycine. Then, the coverslips were mounted on FluoroSaveTM (Millipore). For pH measurement of the lysosome, LysoSensorTM Yellow/Blue DND-160 was incubated at 1 mg/mL overnight and washed twice prior to imaging (54). The final concentration of 5 μM protein was incubated with the LAMP1-HaloTag expressing U2-OS cells that were loaded with 1 mg/mL LysoSensorTM Yellow/Blue DND-160 for 1 hr. In separate chambers, LysoSensorTM Yellow/Blue DND-160 loaded cells were incubated with bafilomycin A1 (1 μM) and chloroquine (50 μM) for 1 hr as a control. For fixed cell confocal microscopy, a customized Nikon TiE inverted scope outfitted with a Yokogawa spinning-disk scan head (#CSU-X1) along with an Andor iXonTM EM-CCD camera (DU-897) with […] exposure time was used to collect 3D images using an SR Apo TIRF 100×1.49 oil-immersion objective. […] coefficients were calculated in 3D with JF646 signal (LAMP-HaloTag) and +36GFP signal (corresponding proteins) using Imaris software with thresholding. Zeiss 880 equipped with AiryScanTM was also used to obtain high resolution images using a Plan-Apochromatic 63×/1.4 oil DIC objective."}, "[4]": {"settings": "pH 7.4", "from_the_text": "For low-pH experiments involving circular dichroism (CD), small-angle X-ray scattering (SAXS), and size exclusion chromatography (SEC), Na2PO4-Citrate buffer was used to ensure that a single buffer system could be used that was stable over the entire pH range to be tested. Buffers were made using established ratios of stock solutions of 0.2 M Na2PO4 and 0.1 M Citrate; final pH was adjusted using hydrochloric acid (HCl) or sodium hydroxide (NaOH) if needed.\nCD wavelength scans (260 to 195 nm) and temperature melts (25 to 95° C.) were measured using a JASCO™ J-1500 or an AVIV™ model 420 CD spectrometer. Temperature melts monitored absorption signal at 222 nm and were carried out at a heating rate of 4° C./min; protein samples were at 0.25 mg/mL in either phosphate buffered saline (PBS) pH 7.4 or Na2PO4-Citrate at indicated pH values (see Buffers systems for varying pH). Guanidinium chloride (GdmCl) titrations were all performed on an AVIV 420 spectrometer with an automated titration apparatus using either PBS pH 7.4 or Na2PO4-Citrate buffers at indicated pH at room temperature, monitoring helical signal at 222 nm, using a protein concentration of 0.025 mg/mL in a 1 cm cuvette with stir bar. Each titration consisted of at least 30 evenly distributed concentration points with one minute mixing time for each step. Titrant solution consisted of the same concentration of protein in the same buffer system plus GdmCl; GdmCl concentration of starting solutions was determined by reactive index."}, "[5]": {"molecular_target": "the molecule itself", "assay": "native mass spectrometry at 5 uM trimer", "experimental": "Samples were buffer exchanged twice into 200 mM ammonium acetate (NH₄Ac; MilliporeSigma) using Micro Bio-Spin P-6 columns (Bio-Rad). […]"}},
  "note": "Entries after “also recorded” stand apart in the source; their conditions may differ.",
  "data": [
    {"molecule": "pRO-2-noHis subunit (homotrimer lacking histidine networks) (designed binder, forms a homotrimer; Tag-free form) GSEYEIRKALEELKASTAELKRSTASLRASTEELKKNPSEDALVENNRLIVENNAIIVENNRIIAAVLELIVRAIK", "values": [
      {"measurement": "oligomeric state at pH 7 / neutral pH", "setting": "[1]", "value": "assembled to the intended trimeric state"},
      {"measurement": "pH response of oligomeric state (pH-induced disassembly)", "setting": "[1]; pH ~7 to ~3", "value": "remained trimeric at low pH; also recorded: no significant pH response"},
      {"measurement": "liposome disruption activity at pH 5", "setting": "[2]", "value": "no detectable liposome activity"},
      {"measurement": "interaction with liposomes by cryo-EM", "setting": "[3]", "value": "no interactions with liposomes at either pH; also recorded: does not interact with liposomes at either pH"},
      {"measurement": "colocalization with lysosomal membranes", "setting": "U2-OS cells", "value": "not observed in lysosomes"},
      {"measurement": "folding stability by GdmCl denaturation", "setting": "[4]", "value": "unaffected by change in pH"},
      {"measurement": "binding result", "setting": "[5]", "value": "binds"}
    ]}
  ]
}
